Reference: the nanobody polyreactivity screen of Harvey et al. (2022)

Test: yeast display, Sf9 membrane polyspecificity reagent, FACS + sequencing; frameworks hold sequencing errors
In short: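 A synthetic nanobody library was expressed on Saccharomyces cerevisiae BJ5465 by galactose induction for 36–48 hours. The library was stained for 1 hour at 4 °C with 10% biotinylated, detergent-solubilized Sf9 membrane reagent and enriched with streptavidin microbeads before FACS. Low and high (top ~1%) gates were set on anti-HA fluorescence for expression and streptavidin fluorescence for reagent binding, and each polyreactivity label reflects the gate of origin.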

Which “polyreactivity (PSR sort gate)” value does the source give for “QVQLVESGGGLVQAGGSLRLSCAASGFIFDSNVMGWYRQAPGKERELVATITNRGGRTYYADSVKGRFTISRDNAKNTVYLQMNSLKPEDTAVYYCNRRWIWTRDRGGYWGQGTQVTVSS” here?
Its value is “low polyreactivity”.

For “QVQLVESGGGLVQAGGSLRLSCAASGFIFDTYAMGWYRQAPGKERELVAAISYRGGSTYYADSVKGRFTISRDNAKNTVYLQMNSLKPEDTAVYYCNAYWRYSYFGRDYWGQGTQVTVSS”, which “polyreactivity (PSR sort gate)” value is on record?
The value was “low polyreactivity”.

Which “polyreactivity (PSR sort gate)” value does the source give for “QVQLVESGGGLVQAGGSLRLSCAASGFIFDVNAMGWYRQAPGKERELVAAISRSGSSTYYADSVKGRFTISRDNAKNTVYFQMNSLKPEDTAVYYCAAEYYRNFYCSRGYWGQGTQVTVSS” here?
Its value is “high polyreactivity”.

Which “polyreactivity (PSR sort gate)” value does the source give for “QVQLVESGGGLVQAGGSLRLSCAASGFIFDYNVMGWYSQAPGKKGSWVAAISWSGGSTYYADSVKGRFTISRDNAKNTVYLEINSLKPEDTAVYYCSSRGTSTFRGTGRYDYWGQGTQVTVSS” here?
Its value is “high polyreactivity”.

With “QVQLVESGGGLVQAGGSLRLSCAASGFIFDYSAMGWYRQAPGKERELVAAISHSGGTTYYADSVKGRFTISRDKAKNTVYLQMNSLKPEDTAVYYCNALYRKDFNSEYDYWGPGTQVTVSS” as the sequence, how does the “polyreactivity (PSR sort gate)” value read?
The value was “high polyreactivity”.

With “QVQLVESGGGLVQAGGSLRLSCAASGFIFDYYGMGWYRQAPGKERELVAAITRGGSTYYADSVKGRFTISRDNAKNTVYLQMNSLKPEDTAFYYCAAKYVSQGYDYWGQGTQVTVSS” as the sequence, how does the “polyreactivity (PSR sort gate)” value read?
The value was “high polyreactivity”.

For “QVQLVESGGGLVQAGGSLRLSCAASGFIFEAYTMGWSRQAPGKERELVASIDWDGGSTYYADSVKGRFTISRDNAKNTVYLQMNSLKPEDTAVYYCAADSRQYDELGDYDYWGQGTQVTVSS”, which “polyreactivity (PSR sort gate)” value is on record?
The value was “low polyreactivity”.

With “QVQLVESGGGLVQAGGSLRLSCAASGFIFENNAKGWYRQAPGKERELVAGITSGGGSTYYADSVKGRFTISRDNAKNTVYLQMNSLKPEDTAVYYFNKLYTRVGFTFEYWGQGTQVNVSS” as the sequence, how does the “polyreactivity (PSR sort gate)” value read?
The value was “low polyreactivity”.

With “QVQLVESGGGLVQAGGSLRLSCAASGFIFERYAMGWYRKAPGKERELVAGIYSGGSTYYADSVKGRFTISRDNAKNTVYLQMNSLKPEDTAVYYCAAFRRQHIIYNYWGQGTQVTVSS” as the sequence, how does the “polyreactivity (PSR sort gate)” value read?
The value was “high polyreactivity”.

With “QVQLVESGGGLVQAGGSLRLSCAASGFIFESNAMGWYRQAPGKERELVAAISKRGGSTYYADSVKGRFTISRDNAKNTVYLQMNSLKPEDTAVYYCNKARGYYHPGYQYGLDYWGQGTQVTVSS” as the sequence, how does the “polyreactivity (PSR sort gate)” value read?
Its value is “high polyreactivity”.

With “QVQLVESGGGLVQAGGSLRLSCAASGFIFEYNTMGWYRQAPGKERELVAAISRRGGSTYYADSVKGRFTISRDNAKNTVYLQMKSLKPEDTAVYYCATDPGARVHYPTGDYWGQGTQVTVSS” as the sequence, how does the “polyreactivity (PSR sort gate)” value read?
The value was “high polyreactivity”.

With “QVQLVESGGGLVQAGGSLRLSCAASGFIFFDNAMGWYRHAPGKETELVAVISSSGTSTYYADSVKGRFTISRDNAKNTVYLQMNSLKPEDTAVYYCNATARTGVYLESDYWGQGTQVTVSS” as the sequence, how does the “polyreactivity (PSR sort gate)” value read?
Its value is “low polyreactivity”.

Which “polyreactivity (PSR sort gate)” value does the source give for “QVQLVESGGGLVQAGGSLRLSCAASGFIFFKYAMRWYRQAPGKEREFVAAISKSGTSTYYADSVKGRFTISRDNAKNTVYLQMNSLKPEDTAVYYCAARKDSYYYRSYDSWGQGTQVTVSS” here?
Its value is “high polyreactivity”.

With “QVQLVESGGGLVQAGGSLRLSCAASGFIFFQYAMGWYRPAPGKERELVAAISGSGVTTYYADSVKGRFTISRDNAKNTVYLQMNSLKPDDTAVYYCNAGSVSDRQMDYWGQGTQVTVSS” as the sequence, how does the “polyreactivity (PSR sort gate)” value read?
Its value is “low polyreactivity”.

For “QVQLVESGGGLVQAGGSLRLSCAASGFIFFQYAMGWYRQAPGKERELVAAITARSGSTYYADSVKGRFTISRDNAKNTVYLQMNSLKPEDTAVYYCAARPRYYRWGPLDYWGQGTQVTVSS”, which “polyreactivity (PSR sort gate)” value is on record?
Its value is “high polyreactivity”.

With “QVQLVESGGGLVQAGGSLRLSCAASGFIFFRYDMGWYRQAPGKERELVAVITSSGSTNYADSVKGRFTISRDNAKNTVYLQMNSLKPEDTAVYYCNARVSGVYRRRVNYWGEGTQVTVSS” as the sequence, how does the “polyreactivity (PSR sort gate)” value read?
Its value is “high polyreactivity”.

With “QVQLVESGGGLVQAGGSLRLSCAASGFIFFVNAMGWYRQAPGKEREFVATITGSGGSTYYADSVKGRFTISRDNAKNTVYLQMNSLKPEDTAVYYCAALGPYLDYGVQYGYWGQGTQVTVSS” as the sequence, how does the “polyreactivity (PSR sort gate)” value read?
Its value is “low polyreactivity”.

With “QVQLVESGGGLVQAGGSLRLSCAASGFIFFYAMGWYRQAPGKERELVASIDSGVSTDYADSVKGRFTISRDNAKNTDYLQMNSLKTEDTAVYYCAADYRAPLEYWGQGTQVTVSS” as the sequence, how does the “polyreactivity (PSR sort gate)” value read?
Its value is “low polyreactivity”.

Which “polyreactivity (PSR sort gate)” value does the source give for “QVQLVESGGGLVQAGGSLRLSCAASGFIFFYNAMGWYRQAPGKERELVADISSGGRTYYADSVKGRFTISRDNAKNTVYLQMNSLKPEDTAVYYCAAQSRYWVVRMDYWGQGTQVTVSS” here?
The value was “high polyreactivity”.

Which “polyreactivity (PSR sort gate)” value does the source give for “QVQLVESGGGLVQAGGSLRLSCAASGFIFGAYAMGWYRQAPGKERELVAAISRRGGSTYYADSVKGRFTISRDNAKNTVYLQMNSLKPEDTAVYYCAADISGSYYRPQYDYWGQGTQVTVSS” here?
Its value is “low polyreactivity”.

For “QVQLVESGGGLVQAGGSLRLSCAASGFIFGAYAMGWYRQAPGKERELVAAITKSGGRTYYADSVKGRFTISRDNAKNTVYLQMNSLKPEDTAVYYCAAVTRYPGEYDYWGQGTQVTVSS”, which “polyreactivity (PSR sort gate)” value is on record?
Its value is “high polyreactivity”.

With “QVQLVESGGGLVQAGGSLRLSCAASGFIFGDYAMGWYRQAPGKERELVAAINYSGGSTYYADSVKGRFTISRDNAKNTVYLQMNSLKPEDTAVYYCAALIYGLVGWGQGTQVTVSS” as the sequence, how does the “polyreactivity (PSR sort gate)” value read?
Its value is “low polyreactivity”.

With “QVQLVESGGGLVQAGGSLRLSCAASGFIFGGNAMGWYRQAPGKERELVAAVSWIAGSTHYADSVKGRFTISRDNAKNTVYLQMNSLKPEDTAVYYCAADHEGSLSRGFTETDYDYWGQGTQVTVSS” as the sequence, how does the “polyreactivity (PSR sort gate)” value read?
Its value is “low polyreactivity”.

Which “polyreactivity (PSR sort gate)” value does the source give for “QVQLVESGGGLVQAGGSLRLSCAASGFIFGGNTMGWSRQAPGKERELVASITLSGGRTHYADSVKGRFTISRDNAKNTVYLQMNSLKPEDTAVYYCARSLASYLHAGDTEYNGSYWGQGTQVTVSS” here?
Its value is “low polyreactivity”.

Which “polyreactivity (PSR sort gate)” value does the source give for “QVQLVESGGGLVQAGGSLRLSCAASGFIFGGYAMGWYRQAHGKEREWVAAISRSGGSTYYADSVKGRFTISRDNAKNTVYLQMNSLKPEDTAVYYCNAVPRRQGFNYWGQGTQVTVSS” here?
The value was “high polyreactivity”.

With “QVQLVESGGGLVQAGGSLRLSCAASGFIFGGYAMGWYRQAPGKERELVAAISRSGGSTYYADSVKGRFTISRDNEKNTVYLQMNSVKPEDTAVYYCNAVPRRQGFNYWGQCTQVTVSS” as the sequence, how does the “polyreactivity (PSR sort gate)” value read?
The value was “high polyreactivity”.

For “QVQLVESGGGLVQAGGSLRLSCAASGFIFGGYAMGWYRQAPGKERELVAAITGGGTTYYADSVKGRFTISRDNAKNTVYLQMNSLKPEDTAVYYCAAAYRLGYHKYYYWGQGTQVTVSS”, which “polyreactivity (PSR sort gate)” value is on record?
Its value is “high polyreactivity”.

Which “polyreactivity (PSR sort gate)” value does the source give for “QVQLVESGGGLVQAGGSLRLSCAASGFIFGGYAMGWYRQAPGKERELVARITRSGGSTYYADSVKGRFTISRDNAKNTVYLQMNSLKPEDTAVYYCNARYGKPAYQYGMDYWGQGTQVTVSS” here?
The value was “low polyreactivity”.

For “QVQLVESGGGLVQAGGSLRLSCAASGFIFGHNAMGWYRQAPGKERELVASISKSGGDTYYADSVKGRFTISRDNAKNTVYLQMNSLKPEDTAVYYCAAQGAVFEILDYWGQGTQVTVSS”, which “polyreactivity (PSR sort gate)” value is on record?
Its value is “low polyreactivity”.

Which “polyreactivity (PSR sort gate)” value does the source give for “QVQLVESGGGLVQAGGSLRLSCAASGFIFGHYAMGWYRQAPGKERELVATISSGGSTKYADSVKGRFTISRDNAKNTVYLQMNSLKPEDTAVYYCAKKLWYLYHHYDYWGQGTQVTVSS” here?
The value was “low polyreactivity”.

With “QVQLVESGGGLVQAGGSLRLSCAASGFIFGINAMGWYRQAPGKEREFVATITSGGGTNYADSVKGLFTISRDNAKNTVYLQMHSLKPEDTAVYYGAAEEDYIYFYVSMDYWGQGTQVTVSS” as the sequence, how does the “polyreactivity (PSR sort gate)” value read?
The value was “low polyreactivity”.

Which “polyreactivity (PSR sort gate)” value does the source give for “QVQLVESGGGLVQAGGSLRLSCAASGFIFGIYAMGWYRQAPGNEWEFVAAITGSAGSTYYADSVKGRFTISRDNAKNTVYLQMNSLKPEDTAVYYCATDVLPRKYDSDYPSGAYDYWGQGTQVTVSS” here?
Its value is “low polyreactivity”.

Which “polyreactivity (PSR sort gate)” value does the source give for “QVQLVESGGGLVQAGGSLRLSCAASGFIFGKNAMGWYRQAPGKERELVAVISWRGSSTYYADSVKGRFTISRDNAKNTVYLQMNSLKPEDTAVYYCAARYPARGTLYYWGQGTQVTVSS” here?
Its value is “low polyreactivity”.

For “QVQLVESGGGLVQAGGSLRLSCAASGFIFGKYAMGWYRQAPGKERELVAAISRSSRTFYADSVKGRFTISRDNAKNTVYLQMNSRKPEDTAVYYCAVKKRAPDGDYWGQGTQVTVSS”, which “polyreactivity (PSR sort gate)” value is on record?
The value was “high polyreactivity”.

With “QVQLVESGGGLVQAGGSLRLSCAASGFIFGLNAMGWYRPAPGKERELVAAIRSASSTNYADSVKGRFTISRDNAKNTVYLQMNSLKPEDTAVYYCAAEYVTYQQGFWGYDYWGQGTQVTVSS” as the sequence, how does the “polyreactivity (PSR sort gate)” value read?
Its value is “low polyreactivity”.

Which “polyreactivity (PSR sort gate)” value does the source give for “QVQLVESGGGLVQAGGSLRLSCAASGFIFGNYAMGWYRPAPGKERELVATITRRGGRTYYADSVKGRFTISRDNAKNTVYLQMNSLKPEDTAVYYCNAGAYYLLSGQDDMDYWGQGTQVTVSS” here?
The value was “high polyreactivity”.

Which “polyreactivity (PSR sort gate)” value does the source give for “QVQLVESGGGLVQAGGSLRLSCAASGFIFGPYAMGWYRQAPGKERELVAASWRGGSTYYADSVKGRFTISRDNAKNTVYLQMNSLKPEDTAVYYCAADVFYSLYYYWGQGTQVTVSS” here?
Its value is “low polyreactivity”.

With “QVQLVESGGGLVQAGGSLRLSCAASGFIFGQYAMGWYRQAPGKERELVAAISWSGGRTNYADSVKGRFTISRDNAKNTVYLQMNSLKPEDTAVYYCAARKGKYPQYPYGYWGQGTQVTVSA” as the sequence, how does the “polyreactivity (PSR sort gate)” value read?
The value was “high polyreactivity”.

With “QVQLVESGGGLVQAGGSLRLSCAASGFIFGRYTMGWYRQAPGKERELVAAITYSGNTYYADSVKGRFTISRDNAKNTVYLQMNSLKPEDTAVYYCNAYGANFRAFRNAYKYWGQGTQVTVSS” as the sequence, how does the “polyreactivity (PSR sort gate)” value read?
Its value is “high polyreactivity”.

For “QVQLVESGGGLVQAGGSLRLSCAASGFIFGSNAMGWYRQAPGKERELVAAISSRGGRTYYADSVKGRFTISRDNAKNTVYLQMNSLKPEDTAVYYCATVRYRALRYDYWGQGTQVTVSS”, which “polyreactivity (PSR sort gate)” value is on record?
Its value is “high polyreactivity”.

Which “polyreactivity (PSR sort gate)” value does the source give for “QVQLVESGGGLVQAGGSLRLSCAASGFIFGSYAMGWYRQAPGKERELVAAINWSGGSTYYADSVKGRFTISRDNAKNTVYLQMNSLKPDDTAVYYCAADRTYYSFLYYPWVDFDYWGQGTQVTVSS” here?
Its value is “high polyreactivity”.

Which “polyreactivity (PSR sort gate)” value does the source give for “QVQLVESGGGLVQAGGSLRLSCAASGFIFGTNAMGWYRQAPGKERELVASISSTGGSTYYADSVKGRFTISRDNAKNTVYLQMNSLKPEDTAVYYFSADPYPEYIRYLPGVDYWGQGTQVTVSS” here?
Its value is “low polyreactivity”.

Which “polyreactivity (PSR sort gate)” value does the source give for “QVQLVESGGGLVQAGGSLRLSCAASGFIFGTNTMGWYRQAPGKERELVAAITSVGSTNYADSVKGRFTISRDNAKNTVYLQMNSLKPEDTAVYYCPATLYYQYGGDYWGQGTQVTVSS” here?
The value was “low polyreactivity”.
